Measurements reported in US20220056137A1 (GIGAGEN, published 2022).
Like-named read-outs stand apart in the source and are kept apart here.

Experiments:
[1] = target: T1, human PD-L1 protein (soluble) (human, UniProt Q9NZQ7 19-239); test: SPR, mAb captured on anti-human IgG Fc, PD-L1 as analyte;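 as to koff: array SPR with mAb supernatants captured at several densities, PD-L1 injected for 5 min then 15 min dissociation, non-regenerative kinetic series, double-referenced against interspot surface and blank injection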;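 as to kon: array SPR with mAb supernatants captured at several densities, PD-L1 injected for 5 min then 15 min dissociation, non-regenerative kinetic series, double-referenced against interspot surface and blank injection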
T1 construct: also called PD-L1 (R&D Systems); His-tagged PD-L1 protein
T1 sequence (Q9NZQ7 19-239 limits assumed): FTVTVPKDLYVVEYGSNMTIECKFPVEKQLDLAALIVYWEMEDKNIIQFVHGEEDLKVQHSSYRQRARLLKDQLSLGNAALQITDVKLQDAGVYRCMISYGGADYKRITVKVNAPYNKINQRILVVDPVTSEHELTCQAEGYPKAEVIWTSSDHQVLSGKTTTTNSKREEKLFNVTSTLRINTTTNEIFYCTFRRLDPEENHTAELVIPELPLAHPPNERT
Protocol: (§1) The surface was then deactivated with 1 M ethanolamine pH 8.5 (Carterra Inc.). Running buffer used for the lawn immobilization was HBS-EPC (10 mM HEPES, 150 mM NaCl, 3 mM EDTA, 0.05% Tween 20, pH 7.4; Teknova).
(§2) The sensor chip was then transferred to a continuous flow microspotter (CFM; Carterra Inc.) for array capturing. The mAb supernatants were diluted 50-fold (3-10 mg/mL final concentration) into HBS-EPC with 1 mg/mL BSA. The samples were each captured twice with 15-minute and 4-minute capture steps on the first and second prints, respectively, to create multiple densities, using a 65 mL/min flow rate. The running buffer in the CFM was also HBS-EPC.
(§3) Next, the sensor chip was loaded onto an SPR reader (MX-96 system; Ibis Technologies) for the kinetic analysis. […] PD-L1 injections were 5 minutes with a 15-minute dissociation at 8 mL/second in a non-regenerative kinetic series. An injection of the goat anti-Human IgG Fc capture antibody at 75 mg/mL was injected at the end of the series to verify the capture level of each mAb. Binding data was double referenced by subtracting an interspot surface and a blank injection and analyzed for ka (on-rate), kd (off-rate), and KD (affinity) using the Kinetic Interaction Tool software (Carterra Inc.).

[2] = target: PD-L1 expressed on CHO cells (human, UniProt Q9NZQ7 19-290); test: cell-based or functional assay
PD-L1 expressed on CHO cells, sequence (Q9NZQ7 19-290 limits assumed): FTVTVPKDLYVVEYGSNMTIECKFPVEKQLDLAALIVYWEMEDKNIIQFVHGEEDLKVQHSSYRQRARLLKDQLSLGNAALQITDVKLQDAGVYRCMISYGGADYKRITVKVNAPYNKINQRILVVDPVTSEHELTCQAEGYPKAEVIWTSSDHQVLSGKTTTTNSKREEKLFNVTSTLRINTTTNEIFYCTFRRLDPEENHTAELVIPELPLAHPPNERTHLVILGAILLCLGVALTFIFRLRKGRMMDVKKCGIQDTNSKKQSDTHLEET

[3] = target: T1, human PD-L1 protein (soluble); test: SPR, mAb captured on anti-human IgG Fc, PD-L1 as analyte; remark: listed apart in the source;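 as to koff: array SPR with mAb supernatants captured at several densities, PD-L1 injected for 5 min then 15 min dissociation, non-regenerative kinetic series, double-referenced against interspot surface and blank injection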;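 as to kon: array SPR with mAb supernatants captured at several densities, PD-L1 injected for 5 min then 15 min dissociation, non-regenerative kinetic series, double-referenced against interspot surface and blank injection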
Protocol: as §1, §2, §3

cyno PD-L1 = target: T2, cyno PD-L1 (cyno); test: BLI (Octet), antibody on AHC biosensor, cyno PD-L1 as analyte
T2 construct: Soluble analyte in BLI
Protocol: For BLI, antibodies were loaded onto an Anti-Human IgG Fc (AHC) biosensor using the Octet Red96 system (ForteBio). Loaded biosensors were dipped into antigen dilutions beginning at 300 nM, with 6 serial dilutions at 1:3. Kinetic analysis was performed using a 1:1 binding model and global fitting.

rhPD-L1-Fc = target: T3, rhPD-L1-Fc (human, UniProt Q9NZQ7 19-239, limits assumed); test: competition ELISA: plate-bound rhPD-L1-Fc, antibody titrated, competitor rhCD80-His detected
T3 construct: Recombinant human PD-L1-Fc coated on ELISA plates; not shown: Fc part
T3 sequence (Q9NZQ7 19-239 limits assumed): as the sequence (Q9NZQ7 19-239 limits assumed) above

| Binder | Kd [1] | Promega assay antagonist (EC50, ug/mL) [2] | Kd [3] | koff [3] | kon [3] | Kd (cyno PD-L1) | EC50 (rhPD-L1-Fc) |
| --- | --- | --- | --- | --- | --- | --- | --- |
| antibody A12 (antibody, V domains shown, Tested as full-length mAb made in CHO cells; also called L12H12) VH: QVQLVESGGGVVQPGRSLRLSCAASGFTFSSYGMHWVRQAPGKGLEWVAVIWYDGSNKSYADSVKGRFTFSRDNSKNTLYLQMNSLRAEDTAVYYCARDMDYFGLDVWGQGTTVTVSS VL: DIQMTQSPSSLSASVGDRVTITCRASQGIRNDLGWYQQKPGKAPKRLIYAASSLQSGVPSRFSGSGSGTEFTLTISSLQPEDFATYYCLQHNSYPRTFGQGTKVEIK | 80 nM | 3.13 µg/mL | 81.3 nM | 0.013 s⁻¹ | 160000 M⁻¹ s⁻¹ | 75.9 nM |  |
| antibody A17 (antibody, V domains shown, Tested as full-length mAb made in CHO cells; also called L17H17) VH: QVQLQESGPGLVKPSETLSLTCTVSGGSISGYSWSWIRQPPGKGLEWIGYIYYSGSTNNNPSLKSRVTISVDTSKNQFSLKLSSVTAADTAVYFCARDDGIAVAGYYFYYGLDVWGQGTTVTVSS VL: DIQMTQSPSSLSASVGDRVTITCRASQGIRNDLGWYQQKPGKAPKRLIYAASSLQSGVPSRFSGSGSGTEFTLTISSLQPEDFATYYCLQHNTYPWTFGQGTKVEIK | 335 nM | 2.25 µg/mL | 335 nM | 0.077 s⁻¹ | 230000 M⁻¹ s⁻¹ | 762 nM |  |
| antibody A20 (antibody, V domains shown, Tested as full-length mAb made in CHO cells; also called L20H20) VH: QVQLQESGPGLVKPSETLSLTCTVSGGSISSYYWSWIRQPPGKGLEWIGYIYYSGSTNYNPSLKSRVTISVDTSKNQFSLKLSSVTAADTAVYYCARDDRIAVGPYYYYYGMDVWGQGTTVTVSS VL: DIQMTQSPSSLSASVGDRVTITCRASQGIRNDLGWYQQKPGKAPKRLIYAASSLQSGVPSRFSGSGSGTEFTLTISSLQPEDFATYYCLQHNSYPYTFGQGTKLEIK | 675 nM |  | 688 nM | 0.11 s⁻¹ | 160000 M⁻¹ s⁻¹ |  |  |
| antibody A21 (antibody, V domains shown, Tested as full-length mAb made in CHO cells; also called L21H21) VH: QVQLVESGGGVVQPGRSLRLSCAASGFTFSSYGMHWVRQAPGKGLEWVAVIWYDGSNKFYEDSVKGRFTISRDNSKNTLYLQMNSLRAEDTAVYYCARGGVNWNDVGYYYYGMDVWGQGTTVTVSS VL: DIQLTQSPPFLSASVGDRVTITCRASQGISSYLAWYQQKPGKAPKLLIYAASTLQSGVPSRFSGSGSGTEFTLTISSLQPEDFATYYCQQLNSYPFTFGQGTKLEIK | 860 nM |  | 867 nM | 0.013 s⁻¹ | 15000 M⁻¹ s⁻¹ |  |  |
| antibody A10 (antibody, V domains shown, Tested as full-length mAb made in CHO cells; also called L10H10) VH: QVQLVESGGGVVQPGRSLRLSCAASGFTFSSYGMHWVRQAPGKGLEWVAVIWYDGINKYYADSVKGRFTISRDNSKNTLYLQMNSLRAEDTAVYYCARDSTASPFDYWGQGTLVTVSS VL: EIVMTQSPATLSLSPGERATLSCRASQSVSSSYLSWYQQKPGQAPRLLIYGASTRATGIPARFSGSGSGTDFTLTISSLQPEDFAVYYCQQDYNLPHTFGQGTKLEIK | 42 nM | 0.27 µg/mL | 40.9 nM | 0.018 s⁻¹ | 440000 M⁻¹ s⁻¹ | 27.4 nM | 2.24 µg/mL |
| antibody A23 (antibody, V domains shown) VH: QVQLVQSGAEVKKPGASVKVSCKASGYTFTNYGISWVRQAPGQGLEWMGWISAYNGNTNYEQKVQGRVTMTTDTSTSTAYMELRSLRSDDTAVYYCARSLTGLFDYWGQGTLVTVSS VL: DIQMTQSPSSLSASVGDRVTITCRASQGIRNDLGWYQQKPGKAPKRLIYAASSLQSGVPSRFSGSGSGTEFTLTISSLQPEDFATYYCLQHNSYPMFTFGQGTKLEIK |  | 9.8 µg/mL |  |  |  |  |  |

Now from value to binder:

| Kd [1] | Promega assay antagonist (EC50, ug/mL) [2] | Kd [3] | koff [3] | kon [3] | Kd (cyno PD-L1) | EC50 (rhPD-L1-Fc) | Binder |
| --- | --- | --- | --- | --- | --- | --- | --- |
| 442 nM | 0.088 µg/mL | 438 nM | 0.035 s⁻¹ | 80000 M⁻¹ s⁻¹ |  |  | antibody A18 (antibody, V domains shown, also called L18H18) VH: QVQLVESGGGVVQPGRSLRLSCAASGFTFSSFALHWVRQAPGKGLEWVAVLWYDGISKYYADSVKGRFTISRDNSKNTLYLQMNSLRAEDTAVYYCARDVVGVHDAFDIWGQGTMVTVSS VL: not shown |
| 227 nM | 0.55 µg/mL | 227 nM | 0.022 s⁻¹ | 97000 M⁻¹ s⁻¹ |  |  | antibody A15 (antibody, V domains shown, Tested as full-length mAb made in CHO cells; also called L15H15) VH: QLQLQESGPGLVKPSETLSLTCTVSGGSFNRSNYYWGWIRQPPGKGLEWIGSIYYSGSTYYNPSLKSRLTISADTSKTQFSLKRNSVTAADTAVYYCAREDIVVVPAAQPPHFYFGMDVWGQGTTVTVSS VL: DIQMTQSPSSLSASVGDRVTITCRASQGIRNDLGWYQQKPGKAPKRLIYAASSLQSGVPSRFSGSGSGTEFTLTISSLQPEDFATYYCLQHDSYPLTFGGGTKVEIK |
| 246 nM |  | 250 nM | 0.035 s⁻¹ | 140000 M⁻¹ s⁻¹ | 532 nM | 0.64 µg/mL | antibody A16 (antibody, V domains shown, Tested as full-length mAb made in CHO cells; also called L16H16) VH: QVQLVESGGGVVQPGRSLRLSCAASGFTFSSYGMHWVRQAPGKGLEWVAVIWYDGSNKYYADSVKGRFTISRDNSNDTLFLQMNSLRAEDTAVYYCARDFDWFGMDVWGQGTTVTVSS VL: DIQMTQSPSSLSASVGDRVTITCRASQGIRNDLGWYQQKPGKAPKRLIYAASSLQSGVPSRFSGSGSGTEFTLTISSLQPEDFATYYCLQHNSYPRTFGQGTKVEIK |
| 567 nM |  | 565 nM | 0.0035 s⁻¹ | 6200 M⁻¹ s⁻¹ |  |  | antibody A19 (antibody, V domains shown, Tested as full-length mAb made in CHO cells; also called L19H19) VH: QVQLVESGGGVVQPGRSLRLSCVASGFTFSSYGMHWVRQAPGKGLEWVAVIWYDGSNKFYIDSVKGRFTISRDNSKNTLYLQMNSLRAEDTAVYYCARGGAVAGTSWYYYYGMDVWGQGTTVTVSS VL: DIQLTQSPSFLSASVGDRVTITCRASQGISSYLAWYQQKPGKAPKLLIYDASTLQSGVPSRFSGSGSGTEFTLTISSLQPEDFAIYYCQQLNTYPLTFGGGTKVEIK |
| 16 nM | 0.111 µg/mL | 15.8 nM | 0.0049 s⁻¹ | 310000 M⁻¹ s⁻¹ |  | 2.62 µg/mL | antibody A6 (antibody, V domains shown, Tested as full-length mAb made in CHO cells; also called L6H6) VH: QVQLVESGGGVVQPGRSLRLSCAASGFTFSSYGMHWVRQAPGKGLEWVAVIWFDGSNKYYADSVKGRFTISRDNSKNTLYLQMNSLRAEDTAVYYCARDKTVSPFDIWGQGTMVTVSS VL: EIVMTQSPATLSLSPGERATLSCRASQSVSSSYLSWYQQKPGQAPRLLIYGASTRATGIPARFSGSGSGTDFTLTISSLQPEDFAVYYCQQDYNLFTFGPGTKVDIK |
| 26 nM | 0.28 µg/mL | 26.2 nM | 0.0055 s⁻¹ | 210000 M⁻¹ s⁻¹ | 20.9 nM | 1.49 µg/mL | antibody A9 (antibody, V domains shown, Tested as full-length mAb made in CHO cells; also called L9H9) VH: QVQLVESGGGVVQPGRSLRLSCAASGFTFSSYGMHWVRQAPGKGLEWVAVIWFDGNNKYYADSVKGRFTISRDNSKNTLYLQMNSLRAEDTAVYYCARDVTTVPFDYWGQGTLVTVSS VL: EIVMTQSPATLSLSPGERATLSCRASQSVSSSYLSWYQQKPGQAPRLLMYGASTRATGIPARFSGSGSGTDFTLTISSLQPEDFAVYYCQQDYNLPYTFGQGTKLEIK |
| 148 nM | 1.23 µg/mL | 146 nM | 0.038 s⁻¹ | 260000 M⁻¹ s⁻¹ | 57.7 nM | 0.6 µg/mL | antibody A14 (antibody, V domains shown, Tested as full-length mAb made in CHO cells; also called L14H14) VH: QVQLVESGGGVVQPGRSLRLSCAASGFTFSSYGMHWVRQAPGKGLEWVAVIWYDGSVKYYADSVKGRFTISRDNSKNTLYLQMNSLRAEDTAVYYCARDRTGVPFDYWGQGTLVTVSS VL: EIVMTQSPATLSLSPGERATLSCRASQSVSSSYLSWYQQKPGQAPRLLIYGASTRATGIPARFSGSGSGTDFTLTISSLQPEDFAVYYCQQDYNLPHTFGQGTKLEIK |
